Reference: patent CN113480644A

Molecular target: SARS-CoV-2 S蛋白 (on virus particles) (SARS-CoV-2) (UniProt P0DTC2)
Experiment: cell-based or functional assay

Substance: REGN10987 (antibody)
- 中和效率(IC 50), 假病毒中和 (MLV pseudovirus, ACE2-HEK293): 0.162 µg/mL
